Starred links: 1 amine or outer side, 2 acyl side, 3 side chain; linkers in the order of their positions; H or OH if unused. Non-standard residues stand in square brackets, D forms with d. Groups on a side chain read outwards from the residue. No end group written: not given here. *: point of attachment. C18 diacid = O=C(O)CCCCCCCCCCCCCCCCC(=O)*; C16 diacid = O=C(O)CCCCCCCCCCCCCCC(=O)*; γGlu = O=C(O)[C@H](CCC(=O)[*:2])N[*:1]; εLys = N[C@@H](CCCCN[*:1])C(=O)[*:2]; AEEA = NCCOCCOCC(=O)O; Aib = CC(C)(N)C(=O)O
T1: human GIP receptor (human, UniProt P48546 22-466)
T1 sequence (looked up): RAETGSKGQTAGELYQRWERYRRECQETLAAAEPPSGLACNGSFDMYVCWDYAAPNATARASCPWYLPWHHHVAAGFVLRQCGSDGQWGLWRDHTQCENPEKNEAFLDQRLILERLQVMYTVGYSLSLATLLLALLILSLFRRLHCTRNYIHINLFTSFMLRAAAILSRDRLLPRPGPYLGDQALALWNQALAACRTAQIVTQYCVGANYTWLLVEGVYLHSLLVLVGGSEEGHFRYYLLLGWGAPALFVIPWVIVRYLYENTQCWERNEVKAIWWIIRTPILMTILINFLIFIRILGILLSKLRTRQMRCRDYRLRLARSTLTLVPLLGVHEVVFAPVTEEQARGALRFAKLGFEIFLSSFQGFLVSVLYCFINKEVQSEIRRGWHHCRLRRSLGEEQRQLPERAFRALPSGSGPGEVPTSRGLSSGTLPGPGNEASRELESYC

B1: Compound No. 7 (peptide)
peptide: Y[Aib]EGTFTSDYSIYLEK([AEEA-AEEA-γGlu-C18 diacid])QAAREFVNWLLAGGPSSGAPPPS-NH2
modifications: N-terminus assumed
SMILES: CC[C@H](C)[C@H](NC(=O)[C@H](CO)NC(=O)[C@H](Cc1ccc(O)cc1)NC(=O)[C@H](CC(=O)O)NC(=O)[C@H](CO)NC(=O)[C@@H](NC(=O)[C@H](Cc1ccccc1)NC(=O)[C@@H](NC(=O)CNC(=O)[C@H](CCC(=O)O)NC(=O)C(C)(C)NC(=O)[C@@H](N)Cc1ccc(O)cc1)[C@@H](C)O)[C@@H](C)O)C(=O)N[C@@H](Cc1ccc(O)cc1)C(=O)N[C@@H](CC(C)C)C(=O)N[C@@H](CCC(=O)O)C(=O)N[C@@H](CCCCNC(=O)COCCOCCNC(=O)COCCOCCNC(=O)CC[C@H](NC(=O)CCCCCCCCCCCCCCCCC(=O)O)C(=O)O)C(=O)N[C@@H](CCC(N)=O)C(=O)N[C@@H](C)C(=O)N[C@@H](C)C(=O)N[C@@H](CCCNC(=N)N)C(=O)N[C@@H](CCC(=O)O)C(=O)N[C@@H](Cc1ccccc1)C(=O)N[C@H](C(=O)N[C@@H](CC(N)=O)C(=O)N[C@@H](Cc1c[nH]c2ccccc12)C(=O)N[C@@H](CC(C)C)C(=O)N[C@@H](CC(C)C)C(=O)N[C@@H](C)C(=O)NCC(=O)NCC(=O)N1CCC[C@H]1C(=O)N[C@@H](CO)C(=O)N[C@@H](CO)C(=O)NCC(=O)N[C@@H](C)C(=O)N1CCC[C@H]1C(=O)N1CCC[C@H]1C(=O)N1CCC[C@H]1C(=O)N[C@@H](CO)C(N)=O)C(C)C
B2: Compound No. 5 (peptide)
peptide: Y[Aib]EGTFTSDYSYYLEK([εLys-εLys-γGlu-C18 diacid])QAAQAFVNWLLAGGPSSGAPPPS-OH
modifications: N-terminus assumed
SMILES: CC(C)C[C@H](NC(=O)[C@H](CC(C)C)NC(=O)[C@H](Cc1c[nH]c2ccccc12)NC(=O)[C@H](CC(N)=O)NC(=O)[C@@H](NC(=O)[C@H](Cc1ccccc1)NC(=O)[C@H](C)NC(=O)[C@H](CCC(N)=O)NC(=O)[C@H](C)NC(=O)[C@H](C)NC(=O)[C@H](CCC(N)=O)NC(=O)[C@H](CCCCNC(=O)[C@@H](N)CCCCNC(=O)[C@@H](N)CCCCNC(=O)CC[C@H](NC(=O)CCCCCCCCCCCCCCCCC(=O)O)C(=O)O)NC(=O)[C@H](CCC(=O)O)NC(=O)[C@H](CC(C)C)NC(=O)[C@H](Cc1ccc(O)cc1)NC(=O)[C@H](Cc1ccc(O)cc1)NC(=O)[C@H](CO)NC(=O)[C@H](Cc1ccc(O)cc1)NC(=O)[C@H](CC(=O)O)NC(=O)[C@H](CO)NC(=O)[C@@H](NC(=O)[C@H](Cc1ccccc1)NC(=O)[C@@H](NC(=O)CNC(=O)[C@H](CCC(=O)O)NC(=O)C(C)(C)NC(=O)[C@@H](N)Cc1ccc(O)cc1)[C@@H](C)O)[C@@H](C)O)C(C)C)C(=O)N[C@@H](C)C(=O)NCC(=O)NCC(=O)N1CCC[C@H]1C(=O)N[C@@H](CO)C(=O)N[C@@H](CO)C(=O)NCC(=O)N[C@@H](C)C(=O)N1CCC[C@H]1C(=O)N1CCC[C@H]1C(=O)N1CCC[C@H]1C(=O)N[C@@H](CO)C(=O)O
B3: Compound No. 4 (peptide)
peptide: Y[Aib]EGTFTSDYSYYLEK([εLys-εLys-γGlu-C18 diacid])QAAQAFVNWLLAGGPSSGAPPPS-NH2
modifications: N-terminus assumed
SMILES: CC(C)C[C@H](NC(=O)[C@H](CC(C)C)NC(=O)[C@H](Cc1c[nH]c2ccccc12)NC(=O)[C@H](CC(N)=O)NC(=O)[C@@H](NC(=O)[C@H](Cc1ccccc1)NC(=O)[C@H](C)NC(=O)[C@H](CCC(N)=O)NC(=O)[C@H](C)NC(=O)[C@H](C)NC(=O)[C@H](CCC(N)=O)NC(=O)[C@H](CCCCNC(=O)[C@@H](N)CCCCNC(=O)[C@@H](N)CCCCNC(=O)CC[C@H](NC(=O)CCCCCCCCCCCCCCCCC(=O)O)C(=O)O)NC(=O)[C@H](CCC(=O)O)NC(=O)[C@H](CC(C)C)NC(=O)[C@H](Cc1ccc(O)cc1)NC(=O)[C@H](Cc1ccc(O)cc1)NC(=O)[C@H](CO)NC(=O)[C@H](Cc1ccc(O)cc1)NC(=O)[C@H](CC(=O)O)NC(=O)[C@H](CO)NC(=O)[C@@H](NC(=O)[C@H](Cc1ccccc1)NC(=O)[C@@H](NC(=O)CNC(=O)[C@H](CCC(=O)O)NC(=O)C(C)(C)NC(=O)[C@@H](N)Cc1ccc(O)cc1)[C@@H](C)O)[C@@H](C)O)C(C)C)C(=O)N[C@@H](C)C(=O)NCC(=O)NCC(=O)N1CCC[C@H]1C(=O)N[C@@H](CO)C(=O)N[C@@H](CO)C(=O)NCC(=O)N[C@@H](C)C(=O)N1CCC[C@H]1C(=O)N1CCC[C@H]1C(=O)N1CCC[C@H]1C(=O)N[C@@H](CO)C(N)=O
B4: Compound No. 36 (peptide)
peptide: Y[Aib]EGTFTSDYSIILEK([AEEA-AEEA-γGlu-C18 diacid])QAAREFINWLLAGGPSSGAPPPS-OH
modifications: N-terminus assumed
SMILES: CC[C@H](C)[C@H](NC(=O)[C@H](Cc1ccccc1)NC(=O)[C@H](CCC(=O)O)NC(=O)[C@H](CCCNC(=N)N)NC(=O)[C@H](C)NC(=O)[C@H](C)NC(=O)[C@H](CCC(N)=O)NC(=O)[C@H](CCCCNC(=O)COCCOCCNC(=O)COCCOCCNC(=O)CC[C@H](NC(=O)CCCCCCCCCCCCCCCCC(=O)O)C(=O)O)NC(=O)[C@H](CCC(=O)O)NC(=O)[C@H](CC(C)C)NC(=O)[C@@H](NC(=O)[C@@H](NC(=O)[C@H](CO)NC(=O)[C@H](Cc1ccc(O)cc1)NC(=O)[C@H](CC(=O)O)NC(=O)[C@H](CO)NC(=O)[C@@H](NC(=O)[C@H](Cc1ccccc1)NC(=O)[C@@H](NC(=O)CNC(=O)[C@H](CCC(=O)O)NC(=O)C(C)(C)NC(=O)[C@@H](N)Cc1ccc(O)cc1)[C@@H](C)O)[C@@H](C)O)[C@@H](C)CC)[C@@H](C)CC)C(=O)N[C@@H](CC(N)=O)C(=O)N[C@@H](Cc1c[nH]c2ccccc12)C(=O)N[C@@H](CC(C)C)C(=O)N[C@@H](CC(C)C)C(=O)N[C@@H](C)C(=O)NCC(=O)NCC(=O)N1CCC[C@H]1C(=O)N[C@@H](CO)C(=O)N[C@@H](CO)C(=O)NCC(=O)N[C@@H](C)C(=O)N1CCC[C@H]1C(=O)N1CCC[C@H]1C(=O)N1CCC[C@H]1C(=O)N[C@@H](CO)C(=O)O
B5: Compound No. 6 (peptide)
peptide: Y[Aib]EGTFTSDYSIYLEK([εLys-εLys-γGlu-C18 diacid])QAAREFVNWLLAGGPSSGAPPPS-NH2
modifications: N-terminus assumed
SMILES: CC[C@H](C)[C@H](NC(=O)[C@H](CO)NC(=O)[C@H](Cc1ccc(O)cc1)NC(=O)[C@H](CC(=O)O)NC(=O)[C@H](CO)NC(=O)[C@@H](NC(=O)[C@H](Cc1ccccc1)NC(=O)[C@@H](NC(=O)CNC(=O)[C@H](CCC(=O)O)NC(=O)C(C)(C)NC(=O)[C@@H](N)Cc1ccc(O)cc1)[C@@H](C)O)[C@@H](C)O)C(=O)N[C@@H](Cc1ccc(O)cc1)C(=O)N[C@@H](CC(C)C)C(=O)N[C@@H](CCC(=O)O)C(=O)N[C@@H](CCCCNC(=O)[C@@H](N)CCCCNC(=O)[C@@H](N)CCCCNC(=O)CC[C@H](NC(=O)CCCCCCCCCCCCCCCCC(=O)O)C(=O)O)C(=O)N[C@@H](CCC(N)=O)C(=O)N[C@@H](C)C(=O)N[C@@H](C)C(=O)N[C@@H](CCCNC(=N)N)C(=O)N[C@@H](CCC(=O)O)C(=O)N[C@@H](Cc1ccccc1)C(=O)N[C@H](C(=O)N[C@@H](CC(N)=O)C(=O)N[C@@H](Cc1c[nH]c2ccccc12)C(=O)N[C@@H](CC(C)C)C(=O)N[C@@H](CC(C)C)C(=O)N[C@@H](C)C(=O)NCC(=O)NCC(=O)N1CCC[C@H]1C(=O)N[C@@H](CO)C(=O)N[C@@H](CO)C(=O)NCC(=O)N[C@@H](C)C(=O)N1CCC[C@H]1C(=O)N1CCC[C@H]1C(=O)N1CCC[C@H]1C(=O)N[C@@H](CO)C(N)=O)C(C)C

Tests used:
[1] = target: human GLP-1 receptor (human, UniProt P43220 24-463); test: cell-based or functional assay
[2] = target: T1, human GIP receptor; test: cell-based or functional assay

| Binder | hGLP-1R, CRE Luc 0% HSA EC50 (pM) [1] [pM] | hGLP-1R, CRE Luc 1% HSA EC50 (pM) [1] [pM] | hGIPR, CRE Luc 0% HSA EC50 (pM) [2] [pM] | hGIPR, CRE Luc 1% HSA EC50 (pM) [2] [pM] |
| --- | --- | --- | --- | --- |
| B1 | 4.2 | 513 | 28.7 | 687 |
| B2 | 9.4 | 625 | 14.2 | 362 |
| Y[Aib]EGTFTSDYSILLEK([AEEA-AEEA-γGlu-C18 diacid])QAAREFINWLLAGGPSSGAPPPS-OH [Compound No. 35] | 3 | 413 | 5.2 | 303 |
| B3 | 6.6 | 484 | 8.5 | 294 |
| Y[Aib]EGTFTSDYSILLEEQAAREFIEWLLAGGPSK([εLys-εLys-γGlu-C16 diacid])GAPPPS-OH [Compound No. 46] | 1.5 | 111 | 1.8 | 97 |
| Y[Aib]EGTFTSDYSILLEEQAAREFIEWLLAGGPSK([AEEA-AEEA-γGlu-C18 diacid])GAPPPS-OH [Compound No. 45] | 3.9 | 1580 | 3.8 | 1220 |
| B4 | 4.7 | 414 | 5.5 | 356 |
| B5 | 3.4 | 243 | 18.5 | 434 |
| Y[Aib]EGTFTSDYSILLEEQAAREFIEWLLAGGPSKGAPPPS-OH (not fully specified (residue 33)) [Compound No. 47] | 2.1 | 154 | 3.1 | 156 |

Reference: patent US20230272029A1, “CO-AGONISTS AT GLP-1 AND GIP RECEPTORS SUITABLE FOR ORAL DELIVERY” (Novo Nordisk A/S, priority 2020, published 2023)
